How the values were obtained:
Assay in all cases: BLI; Octet RED; antibody (IgG, 10 µg/mL) immobilised on anti-human IgG Fc capture biosensors; antigen as analyte, six twofold dilutions from 2 µM (gp120 monomers) or 500 nM (BG505.SOSIP.664 trimer); 1X PBS, 0.1% BSA, 0.005% Tween-20, 0.02% sodium azide; 23°C; association 180 s, dissociation 180 s; double reference subtraction; global 1:1 fit
[1] = target: mature heavy chain paired with Int5∆FWR2-FWR3VL (human)
[2] = target: mature heavy chain paired with the inferred naive light chain (matVH 0VL) (human)
Sequence of mature heavy chain paired with the inferred naive light chain (matVH 0VL) (human) (heavy, as listed by the source): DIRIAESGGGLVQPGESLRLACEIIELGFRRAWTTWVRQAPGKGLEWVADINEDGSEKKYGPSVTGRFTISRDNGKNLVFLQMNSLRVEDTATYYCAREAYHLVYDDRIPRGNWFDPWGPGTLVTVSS

[3] = target: ∆CDR1VH heavy chain chimera paired with the mature light chain (human)
Sequence of ∆CDR1VH heavy chain chimera paired with the mature light chain (human) (light, as listed by the source): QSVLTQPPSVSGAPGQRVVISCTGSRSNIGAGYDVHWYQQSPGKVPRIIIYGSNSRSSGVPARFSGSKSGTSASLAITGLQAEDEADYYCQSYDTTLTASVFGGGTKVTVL

Sequence of mature heavy chain paired with Int5∆FWR2-FWR3VL (human) (heavy, as listed by the source): as the sequence (heavy, as listed by the source) above

Substance “BG505.SOSIP.664 trimer (from UniProt Q2N0S6 1-860; Q2N0S6 1-860) (complex)” has a Kd [1] of 1300 nM, a Kd [2] of 89.6 nM and a Kd [3] of 40.6 nM.
